Patent US20250387492A1, “HSP90-TARGETING CONJUGATES AND FORMULATIONS THEREOF” (Fusion Pharmaceuticals Inc., priority 2018, published 2025)
Several values for one entry are separate records, joined by “and”; a condition that tells them apart may be missing. Identical values can stand only once. Like-named read-outs stand apart in the source and are kept apart here.

Columns and labels:
[1] = Lu levels in tumor, kidney and liver of mice at 0.5 mg/kg
[2] = tested on: NCI-H460 tumor-bearing mice; assay: H460 mouse tumor and plasma pharmacokinetics; type: in vivo; conditions: 25 mg/kg IV; 1 h; individual animals
[3] = H460 mouse tumor and plasma pharmacokinetics; type: in vivo; conditions: mouse, 25 mg/kg IV, mean of 3 animals
[4] = Biodistribution in healthy rat tissues; type: in vivo; conditions: 5 mg/kg, healthy rats; for level at time molar: rat
Experimental: Biodistributions of the conjugates were studied. Conjugate 1 was dosed at 5 mg/kg to healthy rats. The amount of Conjugate 1 and lutetium from Conjugate 1 in rat spleen, kidney, brain, liver and bone marrow was measured.

[5] = Biodistribution in H69 tumor model; conditions: mouse, in vivo, 5 mg/kg, Tumor Levels, 24 h, H69, 5 mg/kg; H69
From the text: (§1) In other studies, biodistribution of the conjugates was studied with H460 and H69 tumor models.

[6] = tested on: H69 tumor model mice; assay: Biodistribution in H69 tumor model; conditions: 5 mg/kg; 24 h; H69
From the text: as §1

[7] = tested on: NCI-H460 tumor-bearing mice; assay: H460 mouse tumor and plasma pharmacokinetics; type: in vivo; conditions: 25 mg/kg IV, individual animals
Experimental: (§2) Conjugate accumulation at 24 and 48 h in tumor and plasma of NCI-H460 tumor-bearing mice (lung cancer). Conjugate 1 was dosed at 25 mg/kg intravenously.

[8] = H460 mouse tumor and plasma pharmacokinetics; type: in vivo; conditions: mouse, 25 mg/kg IV, mean of 3 animals; remark: listed apart in the source
Experimental: as §2

[9] = Plasma profile in male SD rats; type: in vivo, rat; conditions: 5 mg/kg IV; for Vd: male, SD, iv, 5 mg/kg
Experimental: Plasma profile for Conjugate 1 at 5 mg/kg dose (via IV) in male SD rats was obtained. Plasma profile for lutetium from Conjugate 1 was also measured.

[10] = tested on: H460 tumor model mice; assay: Biodistribution in H460 tumor model; conditions: 5 mg/kg
From the text: as §1

[11] = Biodistribution in H460 tumor model; conditions: mouse, in vivo, 5 mg/kg, Tumor Levels, 24 h
From the text: as §1

[12] = plasma, read-out: Compound 1 Conc. in NCI-H460 Mouse Plasma, Mean
[13] = tumor, read-out: Compound 1 Conc. in NCI-H460 Mouse Tumor, Mean
[14] = H460 and H69 tumor models, Conjugate 1 vs Conjugate 2

SMILES: CCNC(=O)c1nnc(-c2cc(C(C)C)c(O)cc2O)n1-c1ccc(CN2CCN(C(=O)CN3CCN4CCN5CCN(CC3)CC(=O)[O][Lu]([O]C(=O)C5)[O]C(=O)C4)CC2)cc1 [Conjugate 1]
- Average Lu in Liver [1]: 23.85 % ID/g
- Average Lu in kidney [1]: 1.00 % ID/g
- Average Lu in tumor [1]: 1.28 % ID/g
- Compound 1 Conc. in NCI-H460 Mouse Tumor [2]: 9.30 µM and 7.05 µM and 11.1 µM
- level at time molar at 1 h [3, 12]: 3360 nM
- level at time molar at 1 h [3, 13]: 9130 nM
- Conjugate 1 Conc., Bone marrow ([4]; individual animals A1-A3): 0.063 µM and 0.664 µM and 0.838 µM
- Conjugate 1 Conc., Kidney ([4]; individual animals A1-A3): 7.75 µM and 7.50 µM and 8.05 µM
- Conjugate 1 Conc., Liver ([4]; individual animals A1-A3): 1.50 µM and 2.46 µM and 3.33 µM
- Conjugate 1 Conc., Spleen ([4]; individual animals A1-A3): 0.148 µM and 0.134 µM and 0.232 µM
- Lu from Conjugate 1 Conc., Bone marrow ([4]; individual animals A1-A3): 0.030 µM and 0.021 µM and 0.022 µM
- Lu from Conjugate 1 Conc., Brain ([4]; individual animals A1-A3): <BLQ
- Lu from Conjugate 1 Conc., Kidney ([4]; individual animals A1-A3): 3.93 µM and 4.14 µM and 4.44 µM
- Lu from Conjugate 1 Conc., Liver ([4]; individual animals A1-A3): 2.34 µM and 2.25 µM and 3.47 µM
- Lu from Conjugate 1 Conc., Spleen ([4]; individual animals A1-A3): 0.154 µM and 0.163 µM and 0.198 µM
- Lu from Conjugate 1 Conc., Bone marrow, Mean ([4]; mean): 0.024 µM
- Lu from Conjugate 1 Conc., Brain, Mean ([4]; mean): <BLQ
- Lu from Conjugate 1 Conc., Kidney, Mean ([4]; mean): 4.17 µM
- Lu from Conjugate 1 Conc., Spleen, Mean ([4]; mean): 0.172 µM
- level at time molar ([4]; bone marrow, mean, read-out: Conjugate 1 Conc., Bone marrow, Mean): 522 nM
- level at time molar ([4]; brain, individual animals A1-A3, read-out: Conjugate 1 Conc., Brain): 37 nM
- level at time molar ([4]; brain, mean, read-out: Conjugate 1 Conc., Brain, Mean): 49 nM
- level at time molar ([4]; kidney, mean, read-out: Conjugate 1 Conc., Kidney, Mean): 7770 nM
- level at time molar ([4]; liver, mean, read-out: Conjugate 1 Conc., Liver, Mean): 2430 nM
- level at time molar ([4]; spleen, mean, read-out: Conjugate 1 Conc., Spleen, Mean): 171 nM
- level at time molar at 24 h [5]: 1610 nM
- Tumor:liver ratio, 24 h, H69 [6]: 0.18
- Compound 1 Conc. in NCI-H460 Mouse Plasma ([7]; 1 h): 1.07 µM and 1.04 µM and 7.98 µM
- Compound 1 Conc. in NCI-H460 Mouse Plasma ([7]; 24 h): 0.020 μM (2×) and 0.046 μM
- Compound 1 Conc. in NCI-H460 Mouse Tumor ([7]; 24 h): 3.85 µM and 4.01 µM and 4.26 µM
- Compound 1 Conc. in NCI-H460 Mouse Plasma ([7]; 48 h): 0.016 µM and 0.013 µM and 0.020 µM
- Compound 1 Conc. in NCI-H460 Mouse Tumor ([7]; 48 h): 1.95 µM and 3.09 µM and 3.10 µM
- level at time molar at 24 h [8, 12]: 29 nM
- level at time molar at 48 h [8, 12]: 16 nM
- level at time molar at 24 h [8, 13]: 4040 nM
- level at time molar at 48 h [8, 13]: 2710 nM
- t1/2 ([9]; analyte Conjugate 1): 1.45 H
- t1/2 ([9]; analyte Lu from Conjugate 1): 0.56 H
- Vd ([9]; rat, analyte Conjugate 1, read-out: Vss_obs): 0.483 L/kg
- Vd ([9]; rat, analyte Conjugate 1, read-out: Vz_obs): 1.44 L/kg
- AUC(0-t) ([9]; rat, analyte Conjugate 1): 7.31 µM·h
- Cmax ([9]; rat, analyte Conjugate 1): 14200 nM
- AUC(0-inf) ([9]; rat, analyte Conjugate 1, read-out: AUC 0-inf_obs): 7.34 µM·h
- clearance ([9]; rat, analyte Conjugate 1, read-out: Cl-obs): 11.1 mL/min/kg
- Tumor:liver ratio, 24 h, H460 (1) ([10]; 24 h, H460 study (1)): 0.16
- Tumor:kidney ratio, 24 h, H460 (2) ([10]; 24 h, H460 study (2)): 1.8
- Tumor:liver ratio, 24 h, H460 (2) ([10]; 24 h, H460 study (2)): 1.2
- Clearance from plasma ([10]; H460 and H69 tumor models): clear rapidly from plasma
- Tumor retention (comparison) [10, 14]: similar
- Tumor uptake (comparison) [10, 14]: noticeably higher than Conjugate 2
- tumor:kidney ratio ([10]; H460 tumor model): around 2
- tumor:liver ratios ([10]; at 24 h, across H460 and H69 tumor models): 0.1-1
- level at time molar at 24 h ([11]; H460 (1), H460 study (1)): 1740 nM
- level at time molar at 24 h ([11]; H460 (2), H460 study (2)): 2490 nM
